{"source": "paper PMC10164552", "about": "“PBRM1 bromodomains associate with RNA to facilitate chromatin association”", "key": {"PBRM1 BD4 [1]": {"molecular_target": "T1, PBRM1 BD4 (UniProt Q86U86 496-637)", "T1 sequence (Q86U86 496-637)": "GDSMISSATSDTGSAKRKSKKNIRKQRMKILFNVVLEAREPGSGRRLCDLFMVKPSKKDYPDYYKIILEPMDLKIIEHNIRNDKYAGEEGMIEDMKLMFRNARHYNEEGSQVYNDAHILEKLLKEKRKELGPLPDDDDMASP", "experiment": "NMR titration (1H-15N HSQC); NMR: 0.1 mM 15N-BD, 50 mM K phosphate pH 7.0, 50 mM KCl, 2 mM DTT, 2 mM EDTA, 7% D2O, 25 C; EMSA: 50 mM K phosphate pH 7.0, 10 mM KCl, 2 mM DTT, 2 mM EDTA, 5% sucrose, on ice 1 h, gel at 4 C", "conditions": "protein: recombinant, tags: His tag, TEV-cleaved"}, "PBRM1 BD2 [2]": {"molecular_target": "T2, PBRM1 BD2 (UniProt Q86U86 178-291)", "T2 sequence (Q86U86 178-291)": "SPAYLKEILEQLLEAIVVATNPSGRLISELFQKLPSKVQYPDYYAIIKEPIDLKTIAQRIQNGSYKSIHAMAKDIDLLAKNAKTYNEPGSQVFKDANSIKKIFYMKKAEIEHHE", "experiment": "NMR titration (1H-15N HSQC); NMR: 0.1 mM 15N-BD, 50 mM K phosphate pH 7.0, 50 mM KCl, 2 mM DTT, 2 mM EDTA, 7% D2O, 25 C; EMSA: 50 mM K phosphate pH 7.0, 10 mM KCl, 2 mM DTT, 2 mM EDTA, 5% sucrose, on ice 1 h, gel at 4 C", "conditions": "protein: recombinant, tags: His tag, TEV-cleaved"}, "PBRM1 BD2 SKY_AAA": {"molecular_target": "PBRM1 BD2 SKY_AAA (UniProt Q86U86 178-291, S275A;K277A;Y281A)", "sequence (Q86U86 178-291 S275A/K277A/Y281A)": "as the sequence (Q86U86 178-291) above, with S98A, K100A, Y104A counted along it", "experiment": "NMR titration (1H-15N HSQC); NMR: 0.1 mM 15N-BD, 50 mM K phosphate pH 7.0, 50 mM KCl, 2 mM DTT, 2 mM EDTA, 7% D2O, 25 C; EMSA: 50 mM K phosphate pH 7.0, 10 mM KCl, 2 mM DTT, 2 mM EDTA, 5% sucrose, on ice 1 h, gel at 4 C", "conditions": "protein: recombinant; tags: His tag, TEV-cleaved; hairpin, UUCG loop"}, "PBRM1 BD4 KRK_AAA": {"molecular_target": "PBRM1 BD4 KRK_AAA (UniProt Q86U86 496-637, K511A;R512A;K513A)", "sequence (Q86U86 496-637 K511A/R512A/K513A)": "as the sequence (Q86U86 496-637) above, with K16A, R17A, K18A counted along it", "experiment": "NMR titration (1H-15N HSQC); NMR: 0.1 mM 15N-BD, 50 mM K phosphate pH 7.0, 50 mM KCl, 2 mM DTT, 2 mM EDTA, 7% D2O, 25 C; EMSA: 50 mM K phosphate pH 7.0, 10 mM KCl, 2 mM DTT, 2 mM EDTA, 5% sucrose, on ice 1 h, gel at 4 C", "conditions": "protein: recombinant; tags: His tag, TEV-cleaved; hairpin, UUCG loop"}, "PBRM1 BD4 [3]": {"molecular_target": "T1, PBRM1 BD4", "experiment": "NMR titration (1H-15N HSQC); Kd only in figure, stated similar to other dsRNAs; NMR: 0.1 mM 15N-BD, 50 mM K phosphate pH 7.0, 50 mM KCl, 2 mM DTT, 2 mM EDTA, 7% D2O, 25 C; EMSA: 50 mM K phosphate pH 7.0, 10 mM KCl, 2 mM DTT, 2 mM EDTA, 5% sucrose, on ice 1 h, gel at 4 C", "conditions": "protein: recombinant, tags: His tag, TEV-cleaved"}, "PBRM1 BD2 [4]": {"molecular_target": "T2, PBRM1 BD2", "experiment": "NMR titration (1H-15N HSQC); Kd only in figure, stated similar to other dsRNAs; NMR: 0.1 mM 15N-BD, 50 mM K phosphate pH 7.0, 50 mM KCl, 2 mM DTT, 2 mM EDTA, 7% D2O, 25 C; EMSA: 50 mM K phosphate pH 7.0, 10 mM KCl, 2 mM DTT, 2 mM EDTA, 5% sucrose, on ice 1 h, gel at 4 C", "conditions": "protein: recombinant, tags: His tag, TEV-cleaved, hairpin"}}, "data": [{"binder": "dsDNA 11 bp (dsDNA) DNA 1: CGTAGACAGCT DNA 2: AGCTGTCTACG", "values": [{"measurement": "Kd", "setting": "PBRM1 BD4 [1]; blunt", "result": "500 ± 270", "unit": "µM"}, {"measurement": "Kd", "setting": "PBRM1 BD2 [2]; blunt", "result": "910 ± 380", "unit": "µM"}]}, {"binder": "GCGUAGACAGCUGUUCGCAGCUGUCUACGC (structured_RNA)", "note": "[dsRNAI stem-loop 30 nt]", "values": [{"measurement": "Kd", "setting": "PBRM1 BD2 SKY_AAA", "result": "200 ± 70", "unit": "µM"}, {"measurement": "Kd", "setting": "PBRM1 BD4 [1]; hairpin, UUCG loop", "result": "120 ± 20", "unit": "µM"}, {"measurement": "Kd", "setting": "PBRM1 BD2 [2]; hairpin, UUCG loop", "result": "25 ± 8", "unit": "µM"}, {"measurement": "Kd", "setting": "PBRM1 BD4 KRK_AAA", "result": "1020 ± 40", "unit": "µM"}]}, {"binder": "dsRNAIV (no loop) (dsRNA) RNA 1: GGCAUCGUGC RNA 2: GCACGAUGCC", "values": [{"measurement": "binding result", "setting": "PBRM1 BD4 [3]; blunt", "result": "binds"}]}, {"binder": "GGCAUCGUGCAUCAGAAUGGCACGAUGCC (structured_RNA)", "note": "[dsRNAIII stem-loop]", "values": [{"measurement": "binding result", "setting": "PBRM1 BD4 [3]; hairpin", "result": "binds"}, {"measurement": "binding result", "setting": "PBRM1 BD2 [4]", "result": "binds"}]}, {"binder": "GGCAUCGUGCUUCGGCACGAUGCC (structured_RNA)", "note": "[dsRNAII stem-loop]", "values": [{"measurement": "binding result", "setting": "PBRM1 BD4 [3]; hairpin, UUCG loop", "result": "binds"}, {"measurement": "binding result", "setting": "PBRM1 BD2 [4]; UUCG loop", "result": "binds"}]}, {"binder": "CGTAGACAGCT (ssDNA)", "note": "[ssDNA]", "values": [{"measurement": "Kd", "setting": "PBRM1 BD4 [1]", "result": "2970 ± 140", "unit": "µM"}, {"measurement": "Kd", "setting": "PBRM1 BD2 [2]", "result": "130 ± 30", "unit": "µM"}]}, {"binder": "UUUUUUUUUUUUU (ssRNA)", "note": "[ssRNAI poly-U 13 nt]", "values": [{"measurement": "Kd", "setting": "PBRM1 BD4 [1]", "result": "320 ± 140", "unit": "µM"}, {"measurement": "Kd", "setting": "PBRM1 BD2 [2]", "result": "350 ± 80", "unit": "µM"}]}]}
